Values quoted from earlier work in paper PMC7825312.

Target: Cys38 (UniProt position 39, SFLKECPSGRI)
Test: UV-vis

Question: For Recoverin (Bos taurus), which pKa is on record?
Answer: 7.6
